Measurements published in paper PMC11022410, “Synthesis and characterization of water-soluble C60–peptide conjugates” (Beilstein Journal of Organic Chemistry, 2024).

Experiments:
[1] = Photoinduced 1O2 generation by ESR spin trapping with 4-oxo-TEMP; settings: green LED 527 nm, 1 min or 10 min; PS 40 μM, 4-oxo-TEMP 80 mM, 60 mM phosphate buffer pH 7.0, O2-bubbled, 296 K
Procedure: To preliminarily evaluate the synthesized C60–oligo-Lys (5a) as a PS, generation of singlet oxygen was measured by the ESR spin trapping method under irradiation of visible light (527 nm green LED). 4-Oxo-TEMP was used as a spin trapping reagent to form an adduct with ^1O2, i.e., 4-oxo-TEMPO, which was observed by ESR (Figure 7b).
Figure 7 a) X-band ESR spectra of the 4-oxo-TEMP adduct with ^1O2 generated by C60–oligo-Lys (5a) and rose bengal (RB), respectively, in aqueous solutions under irradiation with a green LED lamp (527 nm) for 1 min or 10 min. PS: 40 μM, 4-oxo-TEMP: 80 mM, in 60 mM phosphate buffer (pH 7.0). Measurement conditions: temperature 296 K, microwave frequency 10.03 GHz, microwave power 10 mW, receiver gain 5.0 × 10^4, modulation amplitude 1.00 G, modulation frequency 100 KHz, sweep time 83.89 s, number of scans: 1. b) Scheme for the photoinduced ^1O2 generation by C60 and reaction with spin trapping reagent 4-oxo-TEMP to form 4-oxo-TEMPO.
Detection of photoinduced 1O2 generation by ESR spin trapping
ESR measurements were carried out on a Bruker spectrometer equipped with a microwave bridge X-band ER. […]
1O2 generation was detected through the 1O2 adduct of 4-oxo-TEMP generated in an aqueous solution of C60−oligo-Lys (5a) and rose bengal as reference under irradiation by a green LED (527 nm). […]

[2] = type: physicochemical; settings: for Solubility in Milli-Q water (pH 7.0): from lyophilized solid, Milli-Q water pH 7.0, visual (transparent solution), also with sonication, 5b purified, 5c crude; for Solubilizing solvents (Table S1): list of the solvents used to solubilize the molecules; for Solubility in acidic eluent used for HRESIMS: mixture of MeOH and water containing 0.1% formic acid
Procedure: The water solubility of C60–peptide conjugates 5a–c was tested after the removal of any remaining solvent traces by lyophilization. […]
Solubility of C60–oligopeptides 5a–c
Table S1. List of the solubilizing solvents for compounds 5a-5c. […]

SMILES	1O2 generation under visible light irradiation (ESR signal of 4-oxo-TEMPO) [1]	Solubility in Milli-Q water (pH 7.0) [2]	Solubilizing solvents (Table S1) [2]	Solubility in acidic eluent used for HRESIMS [2]	Solubility in polar and nonpolar solvents ([2]; most polar and nonpolar solvents)	Solubility over the tested pH value range ([2]; tested pH value range 4.0–9.2)	Solubility in nonpolar solvents ([2]; most nonpolar solvents, including toluene and CH2Cl2)	Solubility in other polar solvents ([2]; other polar solvents, including MeOH and DMSO)
O=C([O-])c1c(Cl)c(Cl)c(Cl)c(Cl)c1-c1c2cc(I)c(=O)c(I)c-2oc2c(I)c([O-])c(I)cc12.[Na+].[Na+] [rose bengal]	three peaks corresponding to 4-oxo-TEMPO were observed							
N=C(N)NCCC[C@H](NC(=O)[C@H](CCCNC(=N)N)NC(=O)[C@H](CCCNC(=N)N)NC(=O)[C@H](CCCNC(=N)N)NC(=O)[C@H](CCCNC(=N)N)NC(=O)CCCNC(=O)CC(CC(=O)NCCCC(=O)N[C@@H](CCCNC(=N)N)C(=O)N[C@@H](CCCNC(=N)N)C(=O)N[C@@H](CCCNC(=N)N)C(=O)N[C@@H](CCCNC(=N)N)C(=O)N[C@@H](CCCNC(=N)N)C(=O)O)N1CC23c4c5c6c7c8c9c(c%10c%11c2c2c4c4c%12c5c5c6c6c8c8c%13c9c9c%10c%10c%11c%11c2c2c4c4c%12c%12c5c5c6c8c6c8c%13c9c9c%10c%10c%11c2c2c4c4c%12c5c6c5c8c9c%10c2c45)C73C1)C(=O)O (stereo partly shown) [5c, C60–oligo-Arg]		did not produce transparent solutions	insoluble in most solvents	slightly soluble	not soluble in most polar and nonpolar solvents	remained insoluble		
NCCCC[C@H](NC(=O)[C@H](CCCCN)NC(=O)[C@H](CCCCN)NC(=O)[C@H](CCCCN)NC(=O)[C@H](CCCCN)NC(=O)CCCNC(=O)CC(CC(=O)NCCCC(=O)N[C@@H](CCCCN)C(=O)N[C@@H](CCCCN)C(=O)N[C@@H](CCCCN)C(=O)N[C@@H](CCCCN)C(=O)N[C@@H](CCCCN)C(=O)O)N1CC23c4c5c6c7c8c9c(c%10c%11c2c2c4c4c%12c5c5c6c6c8c8c%13c9c9c%10c%10c%11c%11c2c2c4c4c%12c%12c5c5c6c8c6c8c%13c9c9c%10c%10c%11c2c2c4c4c%12c5c6c5c8c9c%10c2c45)C73C1)C(=O)O (stereo partly shown) [5a, C60–oligo-Lys]		immediately and thoroughly solubilized	water (pH 4.0–9.2), MeOH, DMSO				not highly soluble	slightly soluble
O=C(O)CC[C@H](NC(=O)[C@H](CCC(=O)O)NC(=O)[C@H](CCC(=O)O)NC(=O)[C@H](CCC(=O)O)NC(=O)[C@H](CCC(=O)O)NC(=O)CCCNC(=O)CC(CC(=O)NCCCC(=O)N[C@@H](CCC(=O)O)C(=O)N[C@@H](CCC(=O)O)C(=O)N[C@@H](CCC(=O)O)C(=O)N[C@@H](CCC(=O)O)C(=O)N[C@@H](CCC(=O)O)C(=O)O)N1CC23c4c5c6c7c8c9c(c%10c%11c2c2c4c4c%12c5c5c6c6c8c8c%13c9c9c%10c%10c%11c%11c2c2c4c4c%12c%12c5c5c6c8c6c8c%13c9c9c%10c%10c%11c2c2c4c4c%12c5c6c5c8c9c%10c2c45)C73C1)C(=O)O (stereo partly shown) [5b, C60–oligo-Glu]		did not produce transparent solutions	25 mM TRIS buffer (pH > 8.3), 2% NaOD in D2O (pH 13.7)	insolubility				
